Measured values from US20080206268A1 (RIJKSUNIVERSITEIT TE LEIDEN, published 2008).

How the values were obtained:
[1] = biological target: HLA-A24 on HLA typed EBV-LCLs (human); test: cell-based competition HLA peptide binding assay, flow cytometry;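 also: cells given mild acid treatment, then held in medium with 2% FCS and β2 microglobulin, read out as mean cell fluorescence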
Protocol: (§1) Immediately after mild acidic treatment, the cells were washed with 12 ml Iscove's modified Dulbecco's medium (IMDM, Bio Whittaker, Belgium) containing 2% FCS and resuspended in IMDM containing 2% FCS, 1.5 μg/ml β2 microglobulin (Sigma, St. Louis, Mo., US). […] The mean fluorescence expressed by the cells was determined by a FACScalibur flow cytometer (Becton-Dickinson, St. Louis, Mo., US).

[2] = biological target: HLA-B7 on HLA typed EBV-LCLs (human); test: as above
Protocol: as §1

[3] = biological target: HLA-A11 on HLA typed EBV-LCLs (human); test: as above
Protocol: as §1

[4] = biological target: HLA-A1 on HLA typed EBV-LCLs (human); test: as above
Protocol: as §1

[5] = biological target: HLA-A3 on HLA typed EBV-LCLs (human); test: cell-based competition on acid-treated EBV-LCLs against 150 nM fluorescent reference peptide, flow cytometry
Protocol: as §1

[6] = biological target: HLA-B60 on HLA typed EBV-LCLs (human); test: as above
Protocol: as §1

Binder | binding result [1] | binding result [2] | binding result [3] | binding result [4] | IC50 [5] [µM] | IC50 [6] [µM]
ECVLRDDLL (synthetic peptide; also called Peptide No. 12; nonameric HA-1^R peptide) [peptide ECVLRDDLL] | no binding (tested: 100 to 0.78 µM) | no binding (tested: 100 to 0.78 µM) | no binding (tested: 100 to 0.78 µM) | no binding (tested: 100 to 0.78 µM) |  | 
RDDLLEARR (synthetic peptide; also called nonameric HA-1^R peptide) [HA-1^H/R polymorphic region peptide No. 22, RDDLLEARR] | no binding (tested: 100 to 0.78 µM) | no binding (tested: 100 to 0.78 µM) | no binding (tested: 100 to 0.78 µM) | no binding (tested: 100 to 0.78 µM) |  | 
KLKECVLRD (synthetic peptide; also called nonameric HA-1^R peptide) [HA-1^H/R polymorphic region peptide No. 4, KLKECVLRD] | no binding (tested: 100 to 0.78 µM) | no binding (tested: 100 to 0.78 µM) | no binding (tested: 100 to 0.78 µM) | no binding (tested: 100 to 0.78 µM) |  | 
KQSSKALQR [HLA-A3 binder-positive control peptide KQSSKALQR] |  |  |  |  | 9.4 | 
VLRDDLLEAR (synthetic peptide; also called Peptide No. 18) [decameric HA-1^R peptide VLRDDLLEAR] |  |  |  |  | 37.5 | 
KECVLRDDL (synthetic peptide; also called Peptide No. 8) [nonameric HA-1^R peptide KECVLRDDL] | no binding (tested: 100 to 0.78 µM) | no binding (tested: 100 to 0.78 µM) | no binding (tested: 100 to 0.78 µM) | no binding (tested: 100 to 0.78 µM) |  | 3.9
EKLKECVLR (synthetic peptide; also called nonameric HA-1^R peptide) [HA-1^H/R polymorphic region peptide No. 2, EKLKECVLR] | no binding (tested: 100 to 0.78 µM) | no binding (tested: 100 to 0.78 µM) | no binding (tested: 100 to 0.78 µM) | no binding (tested: 100 to 0.78 µM) |  | 
LKECVLRDD (synthetic peptide; also called nonameric HA-1^R peptide) [HA-1^H/R polymorphic region peptide No. 6, LKECVLRDD] | no binding (tested: 100 to 0.78 µM) | no binding (tested: 100 to 0.78 µM) | no binding (tested: 100 to 0.78 µM) | no binding (tested: 100 to 0.78 µM) |  | 
CVLRDDLLE (synthetic peptide; also called nonameric HA-1^R peptide) [HA-1^H/R polymorphic region peptide No. 14, CVLRDDLLE] | no binding (tested: 100 to 0.78 µM) | no binding (tested: 100 to 0.78 µM) | no binding (tested: 100 to 0.78 µM) | no binding (tested: 100 to 0.78 µM) |  | 
LRDDLLEAR (synthetic peptide; also called nonameric HA-1^R peptide) [HA-1^H/R polymorphic region peptide No. 20, LRDDLLEAR] | no binding (tested: 100 to 0.78 µM) | no binding (tested: 100 to 0.78 µM) | no binding (tested: 100 to 0.78 µM) | no binding (tested: 100 to 0.78 µM) |  | 
